Results on four molecules are retold here after paper PMC7904446 (Cell Host & Microbe, 2021).

A word on the Kd: it is a measure of binding affinity in units of concentration.

B1: ZDY20 Fab (Fab, V domains shown)
VH: EVQLVETGGGLIQPGGSLRLSCAASGITVSSNYMSWVRQAPGKGLEWVSVIYSGGSTYYADSVKGRFTISRDNSKNTLYLQMNSLRAEDTAVYYCAREGLGDGYNAIAGLGFDLWGRGTLVTVSS
VL: DIVMTQSPSSLSASVGDSVTITCQASQDINNYLNWYQQKPGRAPELLINDASNLEAGVPSRFSGSGSGTDFTLTISSLQTEDFATYYCQQYGSLPYTFGQGTKLDIR
B2: ZDY28 Fab (Fab, V domains shown)
VH: EVQLVQSGGGVVQPGRSLRLSCAASGFTFSSYGMHWVRQAPGKGLEWVAVISYDGSNKYYADSVKGRFTISRDNSKNTLYLQMNSLRAEDTAVYYCASRSTVVPAAIFAFDIWGQGTMVTVSS
VL: not shown
B3: ZDY49 Fab (Fab, V domains shown)
VH: B2 VH with Q6E
VL: not shown
B4: ZDY95 Fab (Fab, V domains shown)
VH: B2 VH
VL: not shown

Positions count from the first letter of the chain named.

This assay addresses recombinant SARS-CoV-2 spike protein receptor binding domain (RBD) (SARS-CoV-2, UniProt P0DTC2, biotin (the listed product is biotinylated)). Nature of the assay: SPR. On the technique in general: In SPR one partner is held on a chip, and binding of the other changes the refractive index at the surface.
Regarding B1, the Kd was 74.9 nM.
On to B2, for which the dissociation constant Kd came out at 19.2 nM.
Consider B3, for which the Kd was 42.3 nM.
On to B4, for which the Kd turned out to be 26.2 nM.
